Laboratory results published in article doi:10.1101/2021.07.12.452133.

Experiments:
[1] = target: MBP-tagged delVirD4_CTn4 (NH2-terminally truncated VirD4-like ATPase of the CTn4 locus, C. difficile 630) (Clostridioides difficile strain 630); experiment: SEC
[2] = target: MBP-tagged delVirD4_CTn4 (NH2-terminally truncated VirD4-like ATPase of the CTn4 locus, C. difficile 630) (Clostridioides difficile strain 630); experiment: negative-stain transmission electron microscopy
[3] = target: MBP-tagged delVirB4_CTn4 (NH2-terminally truncated VirB4-like ATPase of the CTn4 locus, C. difficile 630) (Clostridioides difficile strain 630); experiment: SEC
[4] = target: MBP-tagged delVirB4_CTn4 (NH2-terminally truncated VirB4-like ATPase of the CTn4 locus, C. difficile 630) (Clostridioides difficile strain 630); experiment: negative-stain transmission electron microscopy

| Substance | oligomerization rate [1] [%] | stoichiometry N [1] [monomers] | stoichiometry N [2] | oligomerization rate [3] [%] | stoichiometry N [3] [monomers] | stoichiometry N [4] |
| --- | --- | --- | --- | --- | --- | --- |
| MBP-tagged delVirD4_CTn4 (NH2-terminally truncated VirD4-like ATPase of the CTn4 locus, C. difficile 630) (domain or fragment) | 100 | > 6 | 6 to 7 | – | – | – |
| MBP-tagged delVirB4_CTn4 (NH2-terminally truncated VirB4-like ATPase of the CTn4 locus, C. difficile 630) (domain or fragment) | – | – | – | 100 | > 6 | 6 to 7 |
